B1: Azoarcus group I ribozyme (parent)
chain: GUGCCUUGCGCCGGGAAACCACGCAAGGGAUGGUGUCAAAUUCGGCGAAACCUAAGCGCCCGCCCGGGCGUAUGGCAACGCCGAGCCAAGCUUCGGCGCCUGCGCCGAUGAAGGUGUAGAGACUAGACGGCACCCACCUAAGGCAAACGCUAUGGUGAAGGCAUAGUCCAGGGAGUGGCGAAAGUCACACAAACCGG

The variants in this data set derive from B1. Put plainly: reverse-splicing fitness (ratio to wild type); higher = more active; in vitro selection; Mg2+ level not given. The gist of the method: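 An in vitro group I ribozyme library with randomized positions was T7-transcribed and gel-purified. In triplicate, 10 pmol RNA in EPPS pH 7.5 was reacted with 50 pmoles of a 30-nt RNA substrate for 1 h at 37 °C across several added MgCl2 levels (1–48 mM), then stopped with EDTA. Products were reverse transcribed from a substrate-complementary primer, PCR-amplified and sequenced (HiSeq 4000). Fitness is a variant's read proportion after selection over that before, normalised to wild type.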
For C82A A120G A145U U176A, the reverse-splicing fitness was found to be 0.0131.

Turning to C82A A111U A120G A145C C169A U176A, the reverse-splicing fitness came to 0.0141.

With C82U A111U A120U A145G C150G C169A U176G, the reverse-splicing fitness stood at 0.00474.

C82G A111G A120U A145C C150U U176C: the reverse-splicing fitness came to 0.00541.

In the case of C82G A111C A120C A145G C150U C169U U176A, the reverse-splicing fitness came out at 0.0156.

Regarding C82G A111C A120G A145C C169A U176C, the reverse-splicing fitness came to 0.00939.

Turning to A111C A120U A145U C150U C169A U176G, the reverse-splicing fitness amounted to 0.00217.

For the variant A111C A120C A145U C150G C169G U176A, the reverse-splicing fitness is 0.00752.

A120G A145U C150A U176C: the reverse-splicing fitness worked out at 0.0519.

Consider C82G A111G A120U C169U U176A, for which the reverse-splicing fitness was determined as 0.00385.

Turning to C82U A120C, the reverse-splicing fitness is 0.167.

For the variant C82A A120U A145G C169A U176G, the reverse-splicing fitness turned out to be 0.00129.

On to C82A A120U A145U C169G U176G, for which the reverse-splicing fitness stood at 0.00116.

On to C82U A111G A120G C150U, for which the reverse-splicing fitness amounted to 0.0125.

In the case of A111G A120U C150G C169A U176G, the reverse-splicing fitness was determined as 0.00246.

For the variant C82A A111U A120U A145G C150A, the reverse-splicing fitness was 0.00899.

Regarding A111C A120U A145U C150A C169U, the reverse-splicing fitness is 0.00653.

On to C82U A111C A120G A145C C150A C169U, for which the reverse-splicing fitness was 0.00688.

Turning to A111C A120G A145G C150G C169A, the reverse-splicing fitness was determined as 0.0166.

On to C82G A120G C150U C169G U176G, for which the reverse-splicing fitness worked out at 0.00485.

Take A111U A145U C150A C169U U176G: the reverse-splicing fitness is 0.00626.

As to C82A A111U A120U C150U C169A U176A, the reverse-splicing fitness amounted to 0.00575.

As to C82U A111U A120U A145U C150U C169G U176G, the reverse-splicing fitness turned out to be 0.00202.

For C82U A111U A145G C150G C169U U176A, the reverse-splicing fitness was 0.0114.

As to C82U A111G A145C C150A C169G U176A, the reverse-splicing fitness amounted to 0.0215.

As for C82A A120C A145U C150U, the reverse-splicing fitness was determined as 0.086.

Take C82G A111G A120C A145G C169G U176A: the reverse-splicing fitness amounted to 0.0158.

Regarding C82A A111G A120U A145G C150G C169U U176A, the reverse-splicing fitness was determined as 0.00739.

C82A A111G A120G A145C C169A: the reverse-splicing fitness worked out at 0.00912.

For the variant C82G A111U C150G C169U U176G, the reverse-splicing fitness came to 0.00728.

Consider C82A A111C A120G C150A C169A U176G, for which the reverse-splicing fitness is 0.00729.

C82G A120C A145C C169A U176A: the reverse-splicing fitness came to 0.0137.

With A120C A145U C150A C169G, the reverse-splicing fitness was determined as 0.00666.

As for C82A A111C A145C C150G C169G U176G, the reverse-splicing fitness was 0.00714.

For C82G A111C A120G A145U C150U C169U U176C, the reverse-splicing fitness stood at 0.0139.

Take A111C A120C A145U C150A C169G: the reverse-splicing fitness stood at 0.00628.

C82G A120U C169A U176C: the reverse-splicing fitness stood at 0.00259.

In the case of C82U A111G A120U A145C C150U U176C, the reverse-splicing fitness was determined as 0.00518.

For the variant C82A A120U A145G C150A C169U U176A, the reverse-splicing fitness is 0.0044.

Consider C82A A111C A145U C150A C169G U176C, for which the reverse-splicing fitness worked out at 0.022.

Regarding C82U A111G C169U U176G, the reverse-splicing fitness turned out to be 0.00449.

As for C82U C150U C169G U176A, the reverse-splicing fitness came to 0.0135.

For the variant C82U A120U A145G C150A C169A U176C, the reverse-splicing fitness was 0.00294.

Turning to C82A A111G A120U A145U C169U U176C, the reverse-splicing fitness is 0.00256.

In the case of C82U A111G A120C A145C C150A U176C, the reverse-splicing fitness turned out to be 0.00767.

A111C A120C A145G C150G U176G: the reverse-splicing fitness is 0.0072.

Consider C82A A111G A120U A145C C150G C169G, for which the reverse-splicing fitness is 0.00351.

Turning to C82G A111C A120C A145C C150G C169G U176A, the reverse-splicing fitness was 0.00984.

C82A A111U A120C A145U: the reverse-splicing fitness is 0.0284.

With A111C A120G A145U C150A C169G U176A, the reverse-splicing fitness stood at 0.0123.

As to C82A A120C C150G C169U U176C, the reverse-splicing fitness amounted to 0.0113.

With C82G A111U A120U A145U C150A C169A U176C, the reverse-splicing fitness was determined as 0.00255.

Turning to C82G A111C A120G A145G C150U C169U, the reverse-splicing fitness is 0.011.

Consider C82A A111U A120G C150G C169G U176C, for which the reverse-splicing fitness was 0.0044.

As for C82U A111C C150A C169G U176G, the reverse-splicing fitness is 0.00835.

Regarding C82U A120U C150A U176G, the reverse-splicing fitness was 0.00418.

As for C82U A120G A145U C150A U176G, the reverse-splicing fitness was 0.00337.

C82G A120U C169G: the reverse-splicing fitness was 0.00666.

As to C82U A111G U176C, the reverse-splicing fitness is 0.274.

On to C82A A111U A120G A145C C150U C169U U176A, for which the reverse-splicing fitness stood at 0.0202.

For the variant C82A A111C A120U C150A U176G, the reverse-splicing fitness is 0.00369.

Regarding C82A A111G A120U C150G U176C, the reverse-splicing fitness was 0.00582.

Consider A120U A145G C150G C169A U176G, for which the reverse-splicing fitness worked out at 0.00464.

With C82A A120U C150G C169U U176G, the reverse-splicing fitness amounted to 0.00296.

Regarding C82U A111G A120C A145U C150U U176A, the reverse-splicing fitness was found to be 0.0147.

Regarding A111G A120U A145C C169U, the reverse-splicing fitness was found to be 0.12.

As to C82U A145C U176G, the reverse-splicing fitness was 0.141.

As for C82U A111G A145C C150A U176C, the reverse-splicing fitness is 0.0142.

In the case of C82G A120U A145U C150G C169A U176A, the reverse-splicing fitness turned out to be 0.0026.

Take C82A A120C A145G C150A U176C: the reverse-splicing fitness turned out to be 0.03.

With C82U A111U C150A C169A U176A, the reverse-splicing fitness came out at 0.0195.

With A120U A145U C150U U176G, the reverse-splicing fitness is 0.206.

C82G A120G C169A U176C: the reverse-splicing fitness was determined as 0.0252.

For the variant C82G A111C A145C C169A U176A, the reverse-splicing fitness is 0.0184.

Regarding A120C A145C C150U U176A, the reverse-splicing fitness came to 0.398.

With C82U A111U A120G A145C C150G C169G U176G, the reverse-splicing fitness was found to be 0.00424.

As for C82U A111U A120G A145C C150G C169G U176A, the reverse-splicing fitness stood at 0.00849.

Consider C82U A111U A120G A145C C150G C169G U176C, for which the reverse-splicing fitness is 0.0069.

As to C82U A120U A145C C150U C169G U176C, the reverse-splicing fitness is 0.00188.

Turning to C82A A120U A145G C150U, the reverse-splicing fitness is 0.116.

On to C82U A111G A120C A145U C150U C169G U176C, for which the reverse-splicing fitness came out at 0.0121.

For C82G A111G A120G A145G C150U C169A, the reverse-splicing fitness was found to be 0.0144.

With A111G A120U A145U U176A, the reverse-splicing fitness stood at 0.364.

These data come from the RNAGym collection of RNA variant scans (doi:10.1093/molbev/msab373).
